Here are results for one molecule from patent US20100098683A1 (Dana-Farber, published 2010).

This assay addresses T1, hFc-MUC1-C/ED (MUC1-C extracellular domain fused to human Fc) (human, UniProt P15941 1098-1155, secreted from CHO-K1 cells; the filing reports N-linked glycosylation of MUC1-C at Asn-36).
T1 construct: Purified on protein A; also called hFc-MUC1-C extracellular domain; not shown: human Fc fragment (hFc) amplified from the CD5-IgG1 plasmid (Aruffo et al., 1990)
T1 sequence: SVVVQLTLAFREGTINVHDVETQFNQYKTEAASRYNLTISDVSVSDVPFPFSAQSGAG
Description: SPR (BIACORE 3000, 25 C), galectin-3(63-250) amine-coupled to a CM5 chip, hFc-MUC1-C/ED injected at 0-100 nM, 1:1 binding with drifting baseline; galectin-3(63-250), CRD fragment. On the technique in general: SPR reads the build-up and loss of mass on a sensor chip optically.

B1: galectin-3(63-250) (ligand)
chain: YHGAPGAYPGAPAPGVYPGPPSGPGAYPSSGQPSAPGAYPATGPYGAPAGPLIVPYNLPLPGGVVPRMLITILGTVKPNANRIALDFQRGNDVAFHFNPRFNENNRRVIVCNTKLDNNWGREERQSVFPFESGKPFKIQVLVEPDHFKVAVNDAHLLQYNHRVKKLNEISKLGISGDIDLTSASYTMI
notes: Fragment that contains the CRD, purified from E. coli and coupled to a CM5 chip
In the case of B1, binding was put at a Kd of 9.8 nM.

Usually Kd stands for the equilibrium constant for the complex coming apart. Low readings indicate a tighter complex, high ones a looser complex.
